Data on four substances can be found in publication PMC8028046.

Assay [1] concerns the target amyloid-beta fibrils (Homo sapiens) (UniProt P05067). Nature of the assay: SPR. The note with it: cited from earlier work.
The target in assay [2] is Aβ42 fibrils (human) (UniProt P05067). Nature of the assay: SPR; Aβ42 fibrils immobilized; BRICHOS at 0.391-12.5 μM; global heterogeneous ligand model with two binding sites; apparent constants. A general note: Surface plasmon resonance follows binding to a sensor surface in real time, without labels.
Sequence of Aβ42 fibrils (human) (P05067 671-713): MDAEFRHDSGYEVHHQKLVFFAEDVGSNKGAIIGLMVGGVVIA
For assay [3], the target named is soluble Aβ42 aggregates of different sizes (human) (UniProt P05067). Nature of the assay: FCCS; time course of aggregation of 5, 10 or 20 μM unlabeled Aβ42 with 100 nM HiLyteFluor488-Aβ42 and 483 nM proSP-C BRICHOS T187R (100 nM labeled with Atto655); auto- and cross-correlation curves analysed by MEMFCS and a two-component 3D diffusion model.
Sequence of soluble Aβ42 aggregates of different sizes (human) (P05067 671-713): as above

Bounds are passed on as bounds.

Sequence of proSP-C BRICHOS WT (P11686 59-197): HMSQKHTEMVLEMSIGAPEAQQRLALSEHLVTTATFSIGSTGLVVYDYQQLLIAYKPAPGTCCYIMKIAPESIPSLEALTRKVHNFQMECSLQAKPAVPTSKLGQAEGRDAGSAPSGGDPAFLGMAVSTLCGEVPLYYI
Sequence of proSP-C BRICHOS BRICHOS (P11686 91-197): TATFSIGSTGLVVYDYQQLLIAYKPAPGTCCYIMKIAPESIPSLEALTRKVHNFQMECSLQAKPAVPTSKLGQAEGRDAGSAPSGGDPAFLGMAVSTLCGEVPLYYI
Sequence of amyloid-beta fibrils (Homo sapiens) (P05067 672-713): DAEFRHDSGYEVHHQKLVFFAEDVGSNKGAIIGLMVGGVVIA

By Kd is commonly meant the free concentration of one partner at which half of the binding sites on the other are occupied at equilibrium, for simple one-to-one binding. As to “proSP-C BRICHOS BRICHOS (from UniProt P11686)”, in assay [1], the Kd is 40 nM.
Take “proSP-C BRICHOS WT (from UniProt P11686 59-197) (domain or fragment)”: in assay [2], the KD2 (binding site 2, apparent) worked out at 130 nM; the ka2 (binding site 2) worked out at 1770 M^–1 s^–1; the kd2 (binding site 2) came to 0.00023 s^–1.
As a reminder, the stoichiometry N is the number of molecules, sites or subunits per partner or assembly. “proSP-C BRICHOS T187R-Atto655 (from UniProt P11686 59-197) (domain or fragment)” displayed a stoichiometry N in assay [3] of less than 10.
Turning to “proSP-C BRICHOS T187R (from UniProt P11686 59-197) (domain or fragment)”, in assay [2], the KD2 (binding site 2, apparent) came to 25 nM; the ka2 (binding site 2) is 6800 M^–1 s^–1; the kd2 (binding site 2) was determined as 0.00017 s^–1.
